# Source: patent US6872537B1, “Assays for the detection of microtubule depolymerization inhibitors” (Regents of the University of California, priority 1998, dated 2005)
# Key:
# microtubules = test: DAPI fluorescence microtubule disassembly (severing) assay; format: biochemical, bovine; settings: 2 μM microtubules, 0.2 μM protein
# Method: ATPase activity was measured by a modified malachite green method (Kodama et al. (1986) J. Biochem. 99: 1465-1472). ATPase reactions of 50-100 μl, were carried out in a buffer previously used for measuring the ATPase activity of native katanin [20 mM K-HEPES pH 8.0, 25 mM potassium glutamate 2 mM MgCl2, 10% glycerol (v/v), 0.02% Triton X-100 (w/v), 1 mg/ml BSA] (McNally and Vale (1993) Cell, 75: 419-429), except that soybean trypsin inhibitor (SBTI) was replaced by BSA as a carrier protein because SBTI increased background phosphate contamination. […] Microtubule concentration was determined by measuring the absorbance at 275 nm in 6 M guanidine HCl by using a molecular mass of 110 kDa and an extinction coefficient of 1.03 ml mg^−1 cm^−1 (Hackney (1988) Proc. Natl. Acad. Sci. USA, 85: 6314-6318). […]
# DAPI severing assays were performed using conditions where the change in fluorescence intensity was linear with the amount of tubulin polymer added (Heusele et al. (1987) Eur. J. Biochem. 165: 613-620). […] The reaction volume was 80 μL, and fluorescence intensity was measured by exciting at 370 nm, and measuring the emission at 450 nm using a model 8100 fluorimeter (SLM Instruments) in photon counting mode.
# [1] = system: Taxol-stabilized, rhodamine-labeled microtubules; test: Microscope-based microtubule severing assay; format: biochemical
# Method: Microscope-based severing assays were performed using previously published procedures (McNally and Vale (1993) Cell, 75: 419-429), except that microtubules were immobilized by first perfusing flow cells with a bacterially expressed kinesin mutant that binds strongly to microtubules but is unable to hydrolyze ATP (K560, G234A mutant; R. Vale and E. Taylor, unpublished results). Assays were performed in 20 mM Hepes (pH 7.5), 2 mM MgCl2, 1 mM ATP with an oxygen scavenger system consisting of glucose oxidase (220 μg/ml), catalase (36 μg/ml), glucose (22.5 mM), and 2-mercaptoethanol (71.5 mM). Images were captured using a cooled, slow-scan CCD (Photometerics) and processed using Adobe Photoshop.
# [2] = ATPase assay (modified malachite green method); format: biochemical, Strongylocentrotus purpuratus
# Method: ATPase activity was measured by a modified malachite green method (Kodama et al. (1986) J. Biochem. 99: 1465-1472). ATPase reactions of 50-100 μl, were carried out in a buffer previously used for measuring the ATPase activity of native katanin [20 mM K-HEPES pH 8.0, 25 mM potassium glutamate 2 mM MgCl2, 10% glycerol (v/v), 0.02% Triton X-100 (w/v), 1 mg/ml BSA] (McNally and Vale (1993) Cell, 75: 419-429), except that soybean trypsin inhibitor (SBTI) was replaced by BSA as a carrier protein because SBTI increased background phosphate contamination. An ATP regenerating system, consisting of 0.5-1.0 mM phosphoenol pyruvate and 2 units of pyruvate kinase, was included to minimize the inhibition by ADP observed previously for native katanin (McNally and Vale (1993) Cell, 75: 419-429). Microtubules were prepared from bovine brain tubulin (Hyman et al. (1990) Meth. Enzymol. 196: 303-319; and Williams and Lee (1982) Meth Enzymol. 85B: 376-385). After assembly, microtubules were sedimented (230,000×g; 10 min), resuspended in ATPase buffer lacking BSA, and the polymers were resuspended by repeated passage through a 27 gauge needle. Microtubule concentration was determined by measuring the absorbance at 275 nm in 6 M guanidine HCl by using a molecular mass of 110 kDa and an extinction coefficient of 1.03 ml mg^−1 cm^−1 (Hackney (1988) Proc. Natl. Acad. Sci. USA, 85: 6314-6318). ATPase reactions were carried out at room temperature, and were initiated by addition of katanin.
# [3] = literature values for comparison; cited from earlier work
molecule,measurement,setting,value
"p60: baculovirus-expressed His-tagged S. purpuratus katanin p60 subunit (SEQ ID NO:1), AAA ATPase (protein, listed as Strongylocentrotus purpuratus, His tag; katanin p60 subunit) MSVDEICENTKMGREYALLGNYETSLVYYQGVLQQIQKLLTSVHEPQRKHQWQTIRQELSQEYEHVKNITKTLNGFKSEPAAPEPAPNHGRAAPFSHHQHAAKPAAAEPARDPDVWPPPTPVDHRPSPPYQRAARKDPPRRSEPSKPANRAPGNDRGGRGPSDRRGDARSGGGGRGGARGSDKDKNRGGKSDKDKKAPSGEEGDEKKFDPAGYDKDLVENLERDIVQRNPNVHWADIAGLTEAKRLLEEAVVLPLWMPDYFKGIRRPWKGVLMVGPPGTGKTMLAKAVATECGTTFFNVSSASLTSKYHGESEKLVRLLFEMARFYAPSTIFIDEIDSICSKRGTGSEHEASRRVKSELLIQMDGVSGPSAGEESSKMVMVLAATNFPWDIDEALRRRLEKRIYIPLPEIDGREQLLRINLKEVPLADDIDLKSIAEKMDGYSGADITNVCRDASMMAMRRRIQGLRPEEIRHIPKEELNQPSTPADFLLALQKVSKSVGKEDLVKYMAWMEEFGSV","rate of microtubule disassembly, DAPI fluorescence decrease (in words)",microtubules,half as active as p60/p80
same,time until microtubules were completely disassembled,"[1]; 0.1 μM protein, 1 mM ATP",5 min
same,microtubule concentration at peak ATP turnover stimulation,[2]; decreases at higher microtubule concentrations,~2 μM tubulin
"p80: baculovirus-expressed His-tagged S. purpuratus katanin p80 subunit (SEQ ID NO:2), contains WD40 repeats (protein, listed as Strongylocentrotus purpuratus, His tag; katanin p80 subunit) MATKRAWKLQELVAHSSNVNCLALGPMSGRVMVTGGEDKKVNLWAVGKQNCIISLSGHTSPVDSVKFNSSEELVVAGSQSGTMKIYDLEPAKIVRTLTGHRNSIRCMDFHPFGEFVASGSTDTNVKLWDVRRKGCIYTYKGHSDQVNMIKFSPDGKWLVTASEDTTIKLWDLTMGKLFQEFKNHTGGVTGIEFHPNEFLLASGSSDRTVQFWDLETFQLVSSTSPGASAVRSISFHPDGSYLFCSSQDMLHAFGWEPIRCFDTFSVFWGKVADTVIASTQLIGASFNATNVSVYVADLSRMSTTGIAQEPQSQPSKTPSGGAEEVPSKPLTASGRKNFVRERPHTTSSKQRQPDVKSEPERQSPTQDEGVKDDDATDIKDPDSYAKIFSPKTRVDHSPERNAQPFPAPLDVPGAQEPEPFKHPPKPAAAAAVAPVSRAPAPSASDWQPAQANPAPNRVPAATKPVPAQEVAPSRKPDPISTIIPSDRNKPANLDMDAFLPPAHAQQAPRVNAPASRKQSDSERIEGLRKGHDSMCQVLSSRHRNLDVVRAIWTAGDAKTSVESVVNMKDQAILVDILNIMLLKKSLWNLDMCVVVLPRLKELLSSKYENYVHTSCACLKLILKNFTSLFNQNIKCPPSGIDITREERYNKCSKCYSYLIATRGYVEEKQHVSGKLGSSFRELHLLLDQLE","rate of microtubule disassembly, DAPI fluorescence decrease (in words)",microtubules,did not cause a change in fluorescence
same,microtubule severing (in words),[1]; concentrations 5-fold higher than those used for p60 (0.5 μM),unable to sever microtubules
same,ATPase activity (in words),[2],no detectable ATPase activity
"NSF: recombinant NSF, AAA ATPase cited for comparison (protein, UniProt P46459 1-744, looked up) Vesicle-fusing ATPase: MAGRSMQAARCPTDELSLTNCAVVNEKDFQSGQHVIVRTSPNHRYTFTLKTHPSVVPGSIAFSLPQRKWAGLSIGQEIEVSLYTFDKAKQCIGTMTIEIDFLQKKSIDSNPYDTDKMAAEFIQQFNNQAFSVGQQLVFSFNEKLFGLLVKDIEAMDPSILKGEPATGKRQKIEVGLVVGNSQVAFEKAENSSLNLIGKAKTKENRQSIINPDWNFEKMGIGGLDKEFSDIFRRAFASRVFPPEIVEQMGCKHVKGILLYGPPGCGKTLLARQIGKMLNAREPKVVNGPEILNKYVGESEANIRKLFADAEEEQRRLGANSGLHIIIFDEIDAICKQRGSMAGSTGVHDTVVNQLLSKIDGVEQLNNILVIGMTNRPDLIDEALLRPGRLEVKMEIGLPDEKGRLQILHIHTARMRGHQLLSADVDIKELAVETKNFSGAELEGLVRAAQSTAMNRHIKASTKVEVDMEKAESLQVTRGDFLASLENDIKPAFGTNQEDYASYIMNGIIKWGDPVTRVLDDGELLVQQTKNSDRTPLVSVLLEGPPHSGKTALAAKIAEESNFPFIKICSPDKMIGFSETAKCQAMKKIFDDAYKSQLSCVVVDDIERLLDYVPIGPRFSNLVLQALLVLLKKAPPQGRKLLIIGTTSRKDVLQEMEMLNAFSTTIHVPNIATGEQLLEALELLGNFKDKERTTIAQQVKGKKVWIGIKKLLMLIEMSLQMDPEYRVRKFLALLREEGASPLDFD",ATPase activity of other AAA family members,[3],0.08 ATP/sec
Katanin: microtubule-severing heterodimer of 60 kDa and 80 kDa subunits; values match recombinant p60/p80 (protein) chain 1: HHHHHHMSVDEICENTKMGREYALLGNYETSLVYYQGVLQQIQKLLTSVHEPQRKHQWQTIRQELSQEYEHVKNITKTLNGFKSEPAAPEPAPNHGRAAPFSHHQHAAKPAAAEPARDPDVWPPPTPVDHRPSPPYQRAARKDPPRRSEPSKPANRAPGNDRGGRGPSDRRGDARSGGGGRGGARGSDKDKNRGGKSDKDKKAPSGEEGDEKKFDPAGYDKDLVENLERDIVQRNPNVHWADIAGLTEAKRLLEEAVVLPLWMPDYFKGIRRPWKGVLMVGPPGTGKTMLAKAVATECGTTFFNVSSASLTSKYHGESEKLVRLLFEMARFYAPSTIFIDEIDSICSKRGTGSEHEASRRVKSELLIQMDGVSGPSAGEESSKMVMVLAATNFPWDIDEALRRRLEKRIYIPLPEIDGREQLLRINLKEVPLADDIDLKSIAEKMDGYSGADITNVCRDASMMAMRRRIQGLRPEEIRHIPKEELNQPSTPADFLLALQKVSKSVGKEDLVKYMAWMEEFGSV chain 2: HHHHHHMATKRAWKLQELVAHSSNVNCLALGPMSGRVMVTGGEDKKVNLWAVGKQNCIISLSGHTSPVDSVKFNSSEELVVAGSQSGTMKIYDLEPAKIVRTLTGHRNSIRCMDFHPFGEFVASGSTDTNVKLWDVRRKGCIYTYKGHSDQVNMIKFSPDGKWLVTASEDTTIKLWDLTMGKLFQEFKNHTGGVTGIEFHPNEFLLASGSSDRTVQFWDLETFQLVSSTSPGASAVRSISFHPDGSYLFCSSQDMLHAFGWEPIRCFDTFSVFWGKVADTVIASTQLIGASFNATNVSVYVADLSRMSTTGIAQEPQSQPSKTPSGGAEEVPSKPLTASGRKNFVRERPHTTSSKQRQPDVKSEPERQSPTQDEGVKDDDATDIKDPDSYAKIFSPKTRVDHSPERNAQPFPAPLDVPGAQEPEPFKHPPKPAAAAAVAPVSRAPAPSASDWQPAQANPAPNRVPAATKPVPAQEVAPSRKPDPISTIIPSDRNKPANLDMDAFLPPAHAQQAPRVNAPASRKQSDSERIEGLRKGHDSMCQVLSSRHRNLDVVRAIWTAGDAKTSVESVVNMKDQAILVDILNIMLLKKSLWNLDMCVVVLPRLKELLSSKYENYVHTSCACLKLILKNFTSLFNQNIKCPPSGIDITREERYNKCSKCYSYLIATRGYVEEKQHVSGKLGSSFRELHLLLDQLE,basal ATPase activity,[2],0.3 ATP/katanin/sec
same,maximal microtubule-stimulated ATPase rate,[2],3 ATP/katanin/sec
